Experimental data reported in paper PMC10623405, “CsTT8 regulates anthocyanin accumulation in blood orange through alternative splicing transcription” (Horticulture Research, 2023).
One block for each molecule: values may come before it.

How the values were obtained:
[1] = molecular target: CsTT8 (TT8 with the full-length open reading frame) from blood orange 'Tarocco' (Citrus sinensis cv. 'Tarocco' (blood orange))
[2] = molecular target: CsTT8 (TT8 with the full-length open reading frame) from blood orange 'Tarocco' (Citrus sinensis cv. 'Tarocco' (blood …, UniProt A0A0U4H1K1 1-694)); test: cell-based or functional assay
[3] = molecular target: Δ15-TT8 (alternative splicing transcript of CsTT8 with the fourth exon skipped) (Citrus sinensis cv. 'Tarocco' (blood orange))
Sequence of Δ15-TT8 (alternative splicing transcript of CsTT8 with the fourth exon skipped) (Citrus sinensis cv. 'Tarocco' (blood orange)) (main, as listed by the source mutant): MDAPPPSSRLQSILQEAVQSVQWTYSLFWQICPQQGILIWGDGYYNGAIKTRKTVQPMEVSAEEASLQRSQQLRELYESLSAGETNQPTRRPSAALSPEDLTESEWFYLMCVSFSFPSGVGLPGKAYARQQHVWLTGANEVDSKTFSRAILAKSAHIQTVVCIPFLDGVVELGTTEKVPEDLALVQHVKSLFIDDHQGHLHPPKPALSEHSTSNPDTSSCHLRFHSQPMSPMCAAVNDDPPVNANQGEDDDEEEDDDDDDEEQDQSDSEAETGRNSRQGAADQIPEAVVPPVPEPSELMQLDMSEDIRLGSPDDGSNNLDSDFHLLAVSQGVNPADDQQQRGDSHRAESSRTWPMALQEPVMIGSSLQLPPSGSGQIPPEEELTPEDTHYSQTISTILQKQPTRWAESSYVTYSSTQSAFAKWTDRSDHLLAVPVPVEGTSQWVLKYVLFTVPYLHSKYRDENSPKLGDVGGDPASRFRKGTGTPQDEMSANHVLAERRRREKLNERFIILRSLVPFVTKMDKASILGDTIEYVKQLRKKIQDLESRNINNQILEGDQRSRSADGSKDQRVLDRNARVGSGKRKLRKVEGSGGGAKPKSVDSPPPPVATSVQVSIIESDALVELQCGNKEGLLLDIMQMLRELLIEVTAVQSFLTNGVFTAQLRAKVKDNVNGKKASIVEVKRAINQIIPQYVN

Sequence of CsTT8 (TT8 with the full-length open reading frame) from blood orange 'Tarocco' (Citrus sinensis cv. 'Tarocco' (A0A0U4H1K1 entry or part of it): as the sequence (main, as listed by the source mutant) above

- dual luciferase reporter with the PH8 promoter in N. benthamiana leaves, effectors TT8 and MYB5, LUC/REN ratio [1]: 0.34 LUC/REN
Molecule: MYB5 (an MYB-type transcription factor) from sweet orange (natural protein)

- dual luciferase reporter with the F3′H promoter in N. benthamiana leaves, effectors TT8 and RUBY1, LUC/REN ratio [2]: 0.099 LUC/REN
- dual luciferase reporter with the F3′H promoter in N. benthamiana leaves, effectors Δ15-TT8 and RUBY1, LUC/REN ratio [3]: 0.042 LUC/REN
B1: RUBY1 (MYB-type transcription factor) from blood orange 'Tarocco' (natural protein, UniProt H6U1F1 1-262, looked up)
chain: MADSLGVRKGAWTGEEDDLLRKCIEKYGEAKWHQVPLRAGLHRCRKSCRLRWLNYLNPNIKRGEFAADEVDLILRLHKLLGNRWSLIVGRLPGRTANDVKNFWNTHLRKKVDKCCKNNKEMKAKAEKVEKINIIKPQPRTFAKNSQWLKGKGMTSNNLQLGDYNLGKQSTPSDHHHHHQQQQENETESVWWESFLFGDELDQQGISSSLSRPEEESTTANIFAEKSPVVTKVTENRVIEAGQSCPTDDFAFDAELWDLLNAK
